{"source": "patent US20230382819A1", "about": "“PROCESSES FOR SYNTHESIS OF ALPHA-EMITTING RADIOPHARMACEUTICALS” (priority 2020, published 2023)", "key": {"[1]": {"experiment": "Maximum tolerated activity/toxicity in non-tumor bearing mice", "format": "in vivo", "experimental": "(§1) Radiochemical synthesis and characterization. Complexation was achieved by reacting DOTATATE (5-10 μg in 5-10 μL water from 1.0 mg/mL solution) with ^225Ac(NO3)3 (3.4 MBq) that was diluted in 100 μL of water containing 10 μL of 20% L-ascorbic acid. The pH was adjusted to 5.5-6 using 1 M Tris buffer (10-12 μL), and then incubated at 60° C. for 1 h (FIG. 1). […] Animal studies. An equal number of male and female subjects were assigned to each experimental cohort. All the animals were purchased from Charles River (Wilmington, MA). Injected Activity Measurement. […] Activities in syringes were measured using the Atomlab 500 Dose Calibrator (Biodex). Per the manufacturer's recommendations, measurements were made for 2 mins using dial number 38.2 and the assumption that ^225Ac and daughters were in secular equilibrium. Activity was injected into each mouse via tail-vein catheter (50 μL dead volume). […] The α activity in μCi of each radionuclide was determined by fitting each peak with a multi-Gaussian fit and integrating to determine the net number of counts while incorporating the acquisition time. The net administered activities were determined by subtraction of the residual activity in the catheter and syringe from the dose calibrator measured pre-injection activity. Spectra for activity calculations were acquired ≥24 h post-radiosynthesis ensuring that ^225Ac and daughters were in secular equilibrium (see Robertson, A. K. H.; et al. Phys Med Biol 2017, 62 (11), 4406-4420). Maximum tolerated activity/toxicity. […] Then, mice were weighed twice per week and monitored for 5 months for signs of distressed behavior, followed by euthanasia and tissue collection. Blood urea nitrogen (BUN), creatinine, alkaline phosphatase (ALKP), alanine aminotransferase (ALT) and aspartate aminotransferase (AST) content in serum were analyzed using commercial IDEXX CLIP (IDEXX, Main, USA) and read by an automated biochemical analyzer (IDEXX Catalyst DX, Main, USA) following the manufacturer's protocol. Bone, bone marrow, brain, cecum, duodenum, kidney, liver, lymph nodes, muscle, pancreas, salivary gland, small intestine, and spleen were harvested and fixed in 10% formalin. Bone was decalcified in 14% ethylene diaminetetraacetic acid (EDTA) solution after fixation in formalin. All tissues were embedded in paraffin, sectioned (4-6 μm thickness), stained with hematoxylin and eosin (H&E), and examined by the veterinary pathologist (R.E.), in a blind manner. Biodistribution (BD). BD studies for ^225Ac-DOTATATE were performed using groups of normal non-tumor bearing BALB/c mice. […] Groups of animals were euthanized at 24, 48 and 96 h p.i., n=4 mice per time point, and tissues were removed and weighed. […] Radiation dosimetry. Dosimetry calculations were performed as previously described. […] The β decay branching ratio for ^217At to ^217Rn is only 0.01% therefore it was assumed that all decays of ^217At were by […] to ^213Bi. The branching ratios for decay of ^213Bi by 98% to ^213Po and by 2% to ^209T1 were accounted for in the calculation. Due to the relatively low LET and the small dimensions of the target tissues, the β emissions from ^217At, ^213Bi, ^209T1 and ^209Pb were assumed negligible and not included in the calculations (see Bolch, W. E.; J Nucl Med 2009, 50 (3), 477-84).\nAnti-tumor efficacy. Efficacy studies were performed using NCI-H69 human SCLC and NCI-H727 lung carcinoid xenograft tumors in SCID mice. […] Animals were euthanized when the experimental endpoint of 2000 mm^3 tumor volume was reached. Any euthanasia performed prior to reaching 2000 mm^3 tumor volume were due to clinical endpoints, such as 20% weight loss, tumor ulceration, hunched back, scruffy fur (no longer grooming), lethargic or slow moving. Histology and immunohistochemistry (IHC). […]"}, "[2]": {"conditions": "mouse, in vivo", "experimental": "Radiochemical synthesis and characterization. Complexation was achieved by reacting DOTATATE (5-10 μg in 5-10 μL water from 1.0 mg/mL solution) with ^225Ac(NO3)3 (3.4 MBq) that was diluted in 100 μL of water containing 10 μL of 20% L-ascorbic acid. The pH was adjusted to 5.5-6 using 1 M Tris buffer (10-12 μL), and then incubated at 60° C. for 1 h (FIG. 1). […] Animal studies. An equal number of male and female subjects were assigned to each experimental cohort. All the animals were purchased from Charles River (Wilmington, MA). Injected Activity Measurement. […] Activities in syringes were measured using the Atomlab 500 Dose Calibrator (Biodex). Per the manufacturer's recommendations, measurements were made for 2 mins using dial number 38.2 and the assumption that ^225Ac and daughters were in secular equilibrium. […] The α activity in μCi of each radionuclide was determined by fitting each peak with a multi-Gaussian fit and integrating to determine the net number of counts while incorporating the acquisition time. The net administered activities were determined by subtraction of the residual activity in the catheter and syringe from the dose calibrator measured pre-injection activity. […] Then, mice were weighed twice per week and monitored for 5 months for signs of distressed behavior, followed by euthanasia and tissue collection. […]"}, "[3]": {"experiment": "Radiation dosimetry and clearance kinetics from BD data", "format": "in vivo", "conditions": "for Decay half-life, Teff: ^225Ac", "experimental": "as §1, with “(BD).” for “(BD). BD studies for ^225Ac-DOTATATE were performed using groups of normal non-tumor bearing BALB/c mice.”\nDosimetry calculations were performed using the generalized internal dosimetry schema of the MIRD Committee for α-particle emitters. According to MIRD #21, the absorbed radiation dose due to particle type x, Dx(rT, TD) is the mean energy imparted to target tissue rT per unit tissue mass, defined by Equation 1: […]\nwhere A(rS, TD) is the total number of nuclear transitions in the […] (accumulated activity), Δi^x is the mean energy emitted per nuclear transition, φ(rT←rS; Ei^x) is the fraction of energy emitted per nuclear transition in the source region that is absorbed in the target region by the i^th emission that is emitted with initial energy E, k is a conversion factor, and M(rT) is the mass of the target tissue."}}, "data": [{"molecule": "C[C@@H](O)[C@H](NC(=O)[C@@H]1CSSC[C@H](NC(=O)[C@@H](Cc2ccccc2)NC(=O)CN2CCN(CC(=O)O)CCN(CC(=O)O)CCN(CC(=O)O)CC2)C(=O)N[C@@H](Cc2ccc(O)cc2)C(=O)N[C@H](Cc2c[nH]c3ccccc23)C(=O)N[C@@H](CCCCN)C(=O)N[C@@H]([C@@H](C)O)C(=O)N1)C(=O)O", "note": "[^225Ac-DOTATATE, metal not drawn]", "values": [{"measurement": "survival", "setting": "[1]; all dose levels", "result": "all animals survived to 5-months p.i."}, {"measurement": "treatment related pathologic changes in other studied organs (not kidney)", "setting": "[1]; bone, bone marrow, brain, cecum, duodenum, liver, lymph nodes, muscle, pancreas, salivary gland, small intestine, spleen", "result": "None and no treatment related damage"}, {"measurement": "ALKP among the cohorts (ANOVA and Dunnett's test)", "setting": "[1]; mouse, in vivo", "result": "no significant differences"}, {"measurement": "ALT among the cohorts (ANOVA and Dunnett's test)", "setting": "[1]; mouse, in vivo", "result": "no significant differences"}, {"measurement": "AST among the cohorts (ANOVA and Dunnett's test)", "setting": "[1]; mouse, in vivo", "result": "no significant differences"}, {"measurement": "Liver enzymes", "setting": "[1]; mouse, in vivo", "result": "normal"}, {"measurement": "acute kidney damage by pathology", "setting": "[1]; mouse, in vivo", "result": "no acute kidney damage"}, {"measurement": "clearance of activity from the tissues", "setting": "[2]", "result": "largely cleared"}, {"measurement": "clearance route", "setting": "[2]", "result": "primarily cleared by the renal route, with some hepatic clearance"}, {"measurement": "Decay half-life, Teff", "setting": "[3]; Brain", "result": 2.8040, "unit": "days"}, {"measurement": "Decay half-life, Teff", "setting": "[3]; Heart", "result": 72.2028, "unit": "days"}, {"measurement": "Decay half-life, Teff", "setting": "[3]; Lung", "result": 2.2216, "unit": "days"}, {"measurement": "Decay half-life, Teff", "setting": "[3]; Muscle", "result": 5.8941, "unit": "days"}, {"measurement": "Decay half-life, Teff", "setting": "[3]; Pancreas", "result": 4.8135, "unit": "days"}, {"measurement": "Decay half-life, Teff", "setting": "[3]; Salivary", "result": 3.7508, "unit": "days"}, {"measurement": "Decay half-life, Teff", "setting": "[3]; Skin", "result": 3.1393, "unit": "days"}, {"measurement": "Decay half-life, Teff", "setting": "[3]; Spleen", "result": 4.6582, "unit": "days"}, {"measurement": "calculated total absorbed dose", "setting": "[3]; mouse, in vivo", "result": "minimal"}]}]}
